For experiment [1], the target named is T1, B-cat-Halo (UniProt P35222 1-781).
T1 sequence (looked up): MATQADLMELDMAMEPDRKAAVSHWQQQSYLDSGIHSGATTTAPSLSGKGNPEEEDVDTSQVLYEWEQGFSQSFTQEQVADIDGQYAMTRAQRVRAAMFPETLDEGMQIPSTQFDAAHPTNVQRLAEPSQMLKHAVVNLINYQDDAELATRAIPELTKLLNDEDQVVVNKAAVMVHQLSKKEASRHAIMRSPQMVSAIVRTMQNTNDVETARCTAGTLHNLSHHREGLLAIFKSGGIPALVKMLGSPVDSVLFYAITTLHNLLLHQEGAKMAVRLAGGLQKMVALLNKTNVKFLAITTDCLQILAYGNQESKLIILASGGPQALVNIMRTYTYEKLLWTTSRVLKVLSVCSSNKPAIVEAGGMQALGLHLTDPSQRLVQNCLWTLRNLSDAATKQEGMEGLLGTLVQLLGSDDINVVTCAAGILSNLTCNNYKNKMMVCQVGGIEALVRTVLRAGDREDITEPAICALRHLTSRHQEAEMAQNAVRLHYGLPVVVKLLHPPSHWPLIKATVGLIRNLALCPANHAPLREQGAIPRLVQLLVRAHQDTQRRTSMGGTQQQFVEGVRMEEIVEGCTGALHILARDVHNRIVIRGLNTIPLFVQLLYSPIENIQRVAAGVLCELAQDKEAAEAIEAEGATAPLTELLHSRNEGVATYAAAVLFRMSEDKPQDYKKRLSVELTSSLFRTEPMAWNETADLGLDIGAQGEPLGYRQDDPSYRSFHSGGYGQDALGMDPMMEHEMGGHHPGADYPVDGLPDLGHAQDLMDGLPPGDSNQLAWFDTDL
The experiment in a line: cell-based or functional assay.

Experiment [2] concerns the target T2, full-length beta-Catenin (Uniprot ID P35222) (Homo sapiens (Human), UniProt P35222 2-781).
T2 construct: The assay protocols say only 'full-length'; No tag is stated, although the AlphaScreen kit is a Histidine (Nickel Chelate) kit; also called B-Catenin; bCat
T2 sequence: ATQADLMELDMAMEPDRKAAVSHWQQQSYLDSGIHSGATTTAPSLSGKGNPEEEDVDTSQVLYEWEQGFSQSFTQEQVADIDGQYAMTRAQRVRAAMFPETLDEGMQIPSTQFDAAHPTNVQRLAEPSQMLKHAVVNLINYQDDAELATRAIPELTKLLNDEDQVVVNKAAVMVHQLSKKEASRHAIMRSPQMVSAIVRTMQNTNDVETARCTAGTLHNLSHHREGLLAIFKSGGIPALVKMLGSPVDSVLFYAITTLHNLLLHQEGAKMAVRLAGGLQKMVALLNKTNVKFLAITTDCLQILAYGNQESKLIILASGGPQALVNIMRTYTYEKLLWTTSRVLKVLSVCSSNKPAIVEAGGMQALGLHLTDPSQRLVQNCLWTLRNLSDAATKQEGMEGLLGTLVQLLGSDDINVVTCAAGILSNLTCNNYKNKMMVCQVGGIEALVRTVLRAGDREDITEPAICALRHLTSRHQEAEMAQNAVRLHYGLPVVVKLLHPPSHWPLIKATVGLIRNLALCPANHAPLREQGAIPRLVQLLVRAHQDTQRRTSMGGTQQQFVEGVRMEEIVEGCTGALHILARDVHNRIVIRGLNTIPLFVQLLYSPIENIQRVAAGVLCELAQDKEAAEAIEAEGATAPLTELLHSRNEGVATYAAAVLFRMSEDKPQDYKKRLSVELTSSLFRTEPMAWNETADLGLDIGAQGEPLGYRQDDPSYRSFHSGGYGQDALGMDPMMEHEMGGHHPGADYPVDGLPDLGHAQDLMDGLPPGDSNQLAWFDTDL
The experiment in a line: AlphaScreen competition; peptide titrated against full-length beta-catenin + biotin-TCF4(10-53). The method, then: Equal volume of the titrated peptide was added to the plate and incubated for 15 minutes at 20° C. Then 4 uL of donor and 4 uL acceptor beads at 10 ug/mL were added to the plate, for a 16 uL reaction pool and protected from light for 60 minutes at 20° C. prior to read. Reads were performed on a CLARIOstar plate reader (BMG Labtech) in duplicate, and data were fitted to a 1:1 binding model with hill slope using an in-house script. All provided concentrations are final concentrations.
Background: Alpha assays give light when donor and acceptor beads are brought close together.

Experiment [3] has as its target T2, full-length beta-Catenin (Uniprot ID …). Description: fluorescence polarization competition; peptide titrated against full-length beta-catenin + 5FAM-TCF4(10-53) probe. The protocol:
(§1) The plate was incubated protected from light for 60 minutes at 20° C. prior to read. Reads were performed on a CLARIOstar plate reader (BMG Labtech) in duplicate, and data were fitted to a 1:1 binding model with hill slope using an in-house script. All provided concentrations are final concentrations.
In general terms: Fluorescence polarisation rises when a labelled molecule tumbles more slowly, as on binding a larger partner.

Experiment [4] has as its target T3, full-length beta-Catenin (Uniprot ID P35222) (Homo sapiens (Human), UniProt P35222 2-781).
T3 construct: also called bCat; B-Catenin
T3 sequence: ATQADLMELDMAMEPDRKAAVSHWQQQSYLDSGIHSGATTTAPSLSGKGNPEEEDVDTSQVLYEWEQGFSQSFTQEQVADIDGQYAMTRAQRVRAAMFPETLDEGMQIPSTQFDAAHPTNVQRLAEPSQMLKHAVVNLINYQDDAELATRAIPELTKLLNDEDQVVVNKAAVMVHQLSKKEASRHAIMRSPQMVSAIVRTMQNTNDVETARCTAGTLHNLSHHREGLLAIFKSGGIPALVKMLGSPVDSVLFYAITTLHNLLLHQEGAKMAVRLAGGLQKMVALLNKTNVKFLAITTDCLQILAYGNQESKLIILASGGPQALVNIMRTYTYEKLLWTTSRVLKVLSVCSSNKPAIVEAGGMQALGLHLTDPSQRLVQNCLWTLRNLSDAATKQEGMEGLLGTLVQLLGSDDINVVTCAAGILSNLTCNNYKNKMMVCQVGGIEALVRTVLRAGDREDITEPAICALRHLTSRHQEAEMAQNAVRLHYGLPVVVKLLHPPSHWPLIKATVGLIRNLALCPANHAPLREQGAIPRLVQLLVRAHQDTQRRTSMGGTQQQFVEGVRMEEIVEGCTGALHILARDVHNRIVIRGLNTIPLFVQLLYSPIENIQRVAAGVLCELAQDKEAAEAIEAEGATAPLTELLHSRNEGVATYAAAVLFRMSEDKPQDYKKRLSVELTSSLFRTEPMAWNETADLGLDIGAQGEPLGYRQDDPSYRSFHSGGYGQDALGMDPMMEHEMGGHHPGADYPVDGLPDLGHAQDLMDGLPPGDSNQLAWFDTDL
The experiment in a line: fluorescence polarization competition; 10 nM full-length beta-catenin + 10 nM 5FAM-TCF4(10-53) probe, peptide titrated. The protocol:
as §1

Experiment [5] has as its target T4, B-cat-Halo (beta-catenin HaloTag NanoBRET construct expressed in HEK293 cells) (UniProt P35222 1-781, HaloTag labelled with HaloTag NanoBRET 618 Ligand).
T4 sequence (looked up): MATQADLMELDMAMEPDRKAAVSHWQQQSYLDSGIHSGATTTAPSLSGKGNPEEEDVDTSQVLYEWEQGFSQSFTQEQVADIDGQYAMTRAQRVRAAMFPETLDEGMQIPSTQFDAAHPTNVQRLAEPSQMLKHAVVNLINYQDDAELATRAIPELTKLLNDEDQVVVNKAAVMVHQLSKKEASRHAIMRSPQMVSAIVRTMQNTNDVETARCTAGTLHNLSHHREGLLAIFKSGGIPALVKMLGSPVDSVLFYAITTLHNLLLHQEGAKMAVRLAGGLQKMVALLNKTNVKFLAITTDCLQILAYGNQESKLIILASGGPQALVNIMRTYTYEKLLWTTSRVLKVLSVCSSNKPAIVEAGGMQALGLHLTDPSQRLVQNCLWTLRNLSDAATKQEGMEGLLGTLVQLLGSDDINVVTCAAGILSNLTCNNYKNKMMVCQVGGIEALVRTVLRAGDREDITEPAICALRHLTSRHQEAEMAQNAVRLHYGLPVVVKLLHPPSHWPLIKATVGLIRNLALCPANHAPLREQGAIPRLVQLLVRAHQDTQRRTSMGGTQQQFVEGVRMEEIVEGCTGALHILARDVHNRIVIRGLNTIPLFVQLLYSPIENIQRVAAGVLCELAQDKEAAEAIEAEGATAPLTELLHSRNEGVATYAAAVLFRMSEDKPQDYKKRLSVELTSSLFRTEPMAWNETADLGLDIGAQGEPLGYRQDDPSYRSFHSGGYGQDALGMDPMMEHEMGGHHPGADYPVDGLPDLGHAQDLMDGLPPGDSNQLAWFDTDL
Description: cell-based or functional assay.

The text below walks through data of patent publication US20240116985A1 (published 2024).

Starred links: 1 amine or outer side, 2 acyl side, 3 side chain; linkers in the order of their positions; H or OH if unused. Positions of bridges follow the written chain, without caps; N, C: chain ends. Non-standard residues stand in square brackets, D forms with d. Primed or numbered codes have the meaning given here. B5(23) = 2-amino-2-(pent-4-en-1-yl)hept-6-enoic acid (2,2-bis(4-pentenyl)glycine), stitching residue, C=CCCCC(CCCC=C)(N[*:1])C(=O)[*:2]; Bta = N[C@@H](Cc1csc2ccccc12)C(=O)O; αAllylPro = C=CC[C@@]1(C(=O)O)CCCN1; S8 = C=CCCCCCC[C@](C)(N)C(=O)O

B1: I-357 (peptide)
peptide: XDAXDDAAFVXFAQ
modifications: not fully specified; N-terminal Ac; C-terminal NH2; PL3 at 1, B5 at 4, S8 at 11 (stapled 1-4 and 4-11)
notes: Stapled peptide composition; Earlier-eluting isomer composition; also called Ac-PL3-Asp-Ala-B5-Asp-Asp-Ala-Ala-Phe-Val-S8-Phe-Ala-Gln-NH2
As for B1, the “NanoBRET % inh @ 10 uM” value in experiment [1] was -5.3%. The EC50 (in general, the concentration giving half of the maximal effect) is 10 µM in experiment [2] and 5 µM in experiment [3].

B2: I-407 (peptide)
peptide: Ac-[αAllylPro]DI[B5(23)]DEAAFQ[S8]F[Bta]Q-NH2
modifications: staple 1-4, 4-11
notes: Stapled (stitched) peptide
Consider B2, for which, in experiment [4], the EC50 is 0.03 µM. Further, in experiment [5], the “NanoBRET % inh @ 10 uM” value was found to be 55.1%.
